Among the targets are CaMKIV (h) (human) (UniProt Q16566); Fyn (h) (human) (UniProt P06241); PKG1α (h) (human) (UniProt Q13976); PTK5 (h) (human) (UniProt P42685).
What all share (assay): cell-based or functional assay
A further test addresses T1, GCK (h) (human) (UniProt Q12851).
T1 sequence (looked up): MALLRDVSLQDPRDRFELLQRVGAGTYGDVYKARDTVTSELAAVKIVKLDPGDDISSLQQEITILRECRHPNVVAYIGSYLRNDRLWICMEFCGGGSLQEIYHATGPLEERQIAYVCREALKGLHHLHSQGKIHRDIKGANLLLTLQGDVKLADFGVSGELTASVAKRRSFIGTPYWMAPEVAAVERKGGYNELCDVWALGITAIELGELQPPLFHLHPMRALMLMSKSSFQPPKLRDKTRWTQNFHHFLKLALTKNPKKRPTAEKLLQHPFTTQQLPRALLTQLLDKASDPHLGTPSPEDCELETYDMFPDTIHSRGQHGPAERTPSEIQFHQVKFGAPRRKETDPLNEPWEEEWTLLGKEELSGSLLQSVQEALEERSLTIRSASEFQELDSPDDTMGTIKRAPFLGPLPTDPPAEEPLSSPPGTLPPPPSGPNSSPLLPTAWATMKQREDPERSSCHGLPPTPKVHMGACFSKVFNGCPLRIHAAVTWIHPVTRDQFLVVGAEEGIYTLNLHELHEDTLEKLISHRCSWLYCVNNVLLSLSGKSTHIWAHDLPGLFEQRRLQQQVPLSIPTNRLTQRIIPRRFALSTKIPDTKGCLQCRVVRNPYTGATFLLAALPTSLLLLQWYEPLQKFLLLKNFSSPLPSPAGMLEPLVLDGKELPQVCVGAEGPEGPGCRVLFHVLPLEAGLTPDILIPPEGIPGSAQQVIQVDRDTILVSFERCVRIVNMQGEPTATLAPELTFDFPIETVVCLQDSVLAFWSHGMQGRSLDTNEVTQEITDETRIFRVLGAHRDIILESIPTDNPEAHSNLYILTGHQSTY

In the next test the target is T2, Haspin (h) (human) (UniProt Q8TF76).
T2 sequence (looked up): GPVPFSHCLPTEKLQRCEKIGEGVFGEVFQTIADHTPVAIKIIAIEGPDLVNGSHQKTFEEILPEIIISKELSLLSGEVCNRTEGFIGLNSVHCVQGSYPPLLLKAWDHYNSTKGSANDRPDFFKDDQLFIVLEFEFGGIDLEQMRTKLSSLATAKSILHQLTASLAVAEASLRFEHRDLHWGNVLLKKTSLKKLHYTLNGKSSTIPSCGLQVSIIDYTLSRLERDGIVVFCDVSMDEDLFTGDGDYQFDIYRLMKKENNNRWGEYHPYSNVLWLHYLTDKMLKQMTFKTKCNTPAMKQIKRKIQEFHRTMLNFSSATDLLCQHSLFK

A further test deals with T3, Mer (h) (human) (UniProt Q12866).
T3 sequence (looked up): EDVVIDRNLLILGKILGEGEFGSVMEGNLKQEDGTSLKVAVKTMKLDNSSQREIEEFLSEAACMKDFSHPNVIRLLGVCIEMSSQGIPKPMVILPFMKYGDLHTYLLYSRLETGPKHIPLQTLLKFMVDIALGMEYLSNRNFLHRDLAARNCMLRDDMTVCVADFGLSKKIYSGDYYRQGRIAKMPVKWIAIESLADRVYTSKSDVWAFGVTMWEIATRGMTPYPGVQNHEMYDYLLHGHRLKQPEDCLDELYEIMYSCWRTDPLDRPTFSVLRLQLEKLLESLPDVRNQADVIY

The target of a further test is T4, TSSK2 (h) (human) (UniProt Q96PF2).
T4 sequence (looked up): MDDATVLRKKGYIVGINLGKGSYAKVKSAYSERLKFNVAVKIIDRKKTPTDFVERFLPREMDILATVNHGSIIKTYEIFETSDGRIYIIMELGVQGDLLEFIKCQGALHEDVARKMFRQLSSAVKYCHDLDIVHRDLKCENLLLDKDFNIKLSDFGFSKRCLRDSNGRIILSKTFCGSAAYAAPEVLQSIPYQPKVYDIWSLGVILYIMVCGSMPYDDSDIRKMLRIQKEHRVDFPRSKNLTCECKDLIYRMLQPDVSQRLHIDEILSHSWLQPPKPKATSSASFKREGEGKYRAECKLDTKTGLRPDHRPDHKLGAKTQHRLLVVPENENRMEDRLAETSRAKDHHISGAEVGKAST

The next test has as its target T5, ULK3 (h) (human) (UniProt Q6PHR2).
T5 sequence (looked up): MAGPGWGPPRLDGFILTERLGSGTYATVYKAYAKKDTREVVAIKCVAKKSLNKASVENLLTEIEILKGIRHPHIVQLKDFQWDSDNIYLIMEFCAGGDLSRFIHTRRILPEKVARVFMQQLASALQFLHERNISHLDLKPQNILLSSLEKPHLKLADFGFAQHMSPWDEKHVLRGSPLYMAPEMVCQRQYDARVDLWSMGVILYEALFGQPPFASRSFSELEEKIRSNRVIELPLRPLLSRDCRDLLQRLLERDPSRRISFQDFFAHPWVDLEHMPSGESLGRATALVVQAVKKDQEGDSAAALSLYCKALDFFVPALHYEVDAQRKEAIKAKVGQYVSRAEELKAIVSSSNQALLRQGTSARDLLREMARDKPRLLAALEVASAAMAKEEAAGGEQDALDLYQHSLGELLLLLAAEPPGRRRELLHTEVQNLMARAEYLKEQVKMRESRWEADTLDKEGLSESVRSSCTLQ

PTK5 (h) (human), sequence (P42685 whole entry): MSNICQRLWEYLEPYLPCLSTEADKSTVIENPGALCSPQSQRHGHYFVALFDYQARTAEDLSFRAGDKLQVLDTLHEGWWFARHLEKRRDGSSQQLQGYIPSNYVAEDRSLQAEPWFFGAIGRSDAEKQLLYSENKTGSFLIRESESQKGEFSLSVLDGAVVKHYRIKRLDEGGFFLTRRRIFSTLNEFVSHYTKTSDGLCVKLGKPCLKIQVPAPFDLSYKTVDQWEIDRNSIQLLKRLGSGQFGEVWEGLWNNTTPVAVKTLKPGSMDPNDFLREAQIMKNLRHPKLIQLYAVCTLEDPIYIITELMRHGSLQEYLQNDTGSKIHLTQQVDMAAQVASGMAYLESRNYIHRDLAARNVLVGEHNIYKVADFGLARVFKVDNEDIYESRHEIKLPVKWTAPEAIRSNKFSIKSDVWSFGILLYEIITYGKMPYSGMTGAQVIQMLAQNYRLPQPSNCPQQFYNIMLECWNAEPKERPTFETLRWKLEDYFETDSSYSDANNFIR

On to MMI-0300 (peptide), for which the % activity at 100 µM with CaMKIV (h) (human) stood at 17%; with Fyn (h) (human), 74%; with GCK (h) (human), 70%; with Haspin (h) (human), 48%; in the test with Mer (h) (human), 52%; with PKG1α (h) (human), 64%. For the same substance, the % activity at 100 µM was 132% in the test with PTK5 (h) (human), 98% with TSSK2 (h) (human) and 167% with ULK3 (h) (human).

Values taken from patent publication US20160136234A1.
